Laboratory results taken from PMC6377682 (2019).

B1: human ASPP2^920-1120 [human] / PP1α^301-330 C-tail peptide [human] (parent complex)
chain 1: MRVKFNPLALLLDSSLEGEFDLVQRIIYEVDDPSLPNDEGITALHNAVCAGHTEIVKFLVQFGVNVNAADSDGWTPLHCAASCNNVQVCKFLVESGAAVFAMTYSDMQTAADKCEEMEEGYTQCSQFLYGVQEKMGIMNKGVIYALWDYEPQNDDELPMKEGDCMTIIHREDEDEIEWWWARLNDKEGYVPRNLLGLYPRI
chain 2: KNKGKYGQFSGLNPGGRPITPPRNSAKAKK
B2: human ASPP1^882-1090 [human] / human PP1β^6-327 [human] (parent complex)
chain 1: LRVRFNPLALLLDASLEGEFDLVQRIIYEVEDPSKPNDEGITPLHNAVCAGHHHIVKFLLDFGVNVNAADSDGWTPLHCAASCNSVHLCKQLVESGAAIFASTISDIETAADKCEEMEEGYIQCSQFLYGVQEKLGVMNKGVAYALWDYEAQNSDELSFHEGDALTILRRKDESETEWWWARLGDREGYVPKNLLGLYPRIKPRQRTLA
chain 2: LNVDSLITRLLEVRGCRPGKIVQMTEAEVRGLCIKSREIFLSQPILLELEAPLKICGDIHGQYTDLLRLFEYGGFPPEANYLFLGDYVDRGKQSLETICLLLAYKIKYPENFFLLRGNHECASINRIYGFYDECKRRFNIKLWKTFTDCFNCLPIAAIVDEKIFCCHGGLSPDLQSMEQIRRIMRPTDVPDTGLLCDLLWSDPDKDVQGWGENDRGVSFTFGADVVSKFLNRHDLDLICRAHQVVEDGYEFFAKRQLVTLFSAPNYCGEFDNAGGMMSVDETLMCSFQILKPSEKKAKYQYGGLNSGRPVTPPRTANPPKKR
B3: human ASPP2^920-1120 [human] / human PP1β^6-327 [human] (parent complex)
chain 1: B1 chain 1
chain 2: B2 chain 2
B4: PP1α^301-330 C-tail peptide [human] / human ASPP2^920-1120 [human] (parent complex)
chain 1: B1 chain 2
chain 2: B1 chain 1

Variants of: B1
Test: ITC

| Kd [nM] | Variant |
| --- | --- |
| 172 | chain 1 D172G, chain 1 E173P |

Variants of: B2
Test: BLI

| Kd [nM] | Variant |
| --- | --- |
| 84.4 | chain 1 K171E, chain 1 S174D |

Variants of: B3
Test: BLI

| Kd [nM] | Variant |
| --- | --- |
| 136 | chain 1 D174S |
| 178 | chain 1 E171K, chain 1 D174S |

Variants of: B4
Test: ITC

| Kd [nM] | Variant |
| --- | --- |
| 520 | chain 1 K27A |
| 326 | chain 1 K30A |
| 342 | chain 1 K29A |
